Results from PMC4757811 (Biochemistry, 2015).
Square brackets hold non-standard residues; d marks the D form. Ends that are not written are not given here. pY = N[C@@H](Cc1ccc(OP(=O)(O)O)cc1)C(=O)O

Target: Brk SH2 domain (UniProt Q13882 78-170)
Assay: ITC

Brk SH2 domain, sequence (Q13882 78-170): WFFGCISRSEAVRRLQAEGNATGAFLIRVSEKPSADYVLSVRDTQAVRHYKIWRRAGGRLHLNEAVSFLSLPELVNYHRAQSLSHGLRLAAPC

## FTS[pY]ENPTG [Phosphorylated Brk C-terminal tail peptide, wild type (FTSpYENPTG)]
  Kd: 15 µM

## FTS[pY]ENLTG [Phosphorylated Brk C-terminal tail peptide with the P450L substitution (FTSpYENLTG)]
  Kd: 53 µM
